# Target: JEV-ED3 protein (domain III of the Japanese encephalitis virus envelope protein, aa 303-398, C-terminal His-tag) (Japanese encephalitis virus)
# Assay: BLI
substance,measurement,value
"recombinant Human EGFR Protein (ECD, hFc Tag) (from UniProt P00533 25-645) (Fc fusion)",Kd,0.283 µM

# — PMC12747170
